Assay results published in PMC8761706, “Mapping of the fibrinogen-binding site on the staphylocoagulase C-terminal repeat region” (The Journal of Biological Chemistry, 2021).

Tests used:
[5F]PR–R1 [1] = molecular target: T1, [5F]PR–R1 (Staphylococcus aureus Newman D2 Tager …, 5-fluorescein (5-IAF) on the engineered C-terminal Cys); assay: other fluorescence titration; fluorescein-labeled construct at fixed concentration titrated with frag D; fluorescence intensity; 25 °C; 50 mM Hepes, 110 mM NaCl, 5 mM CaCl2, 1 mg/ml PEG-8000, pH 7.4, 10 μM FPR-CK; quadratic fit; n fixed to 1 for the Ala constructs and MP; details: both partners purified
T1 construct: the 10 SC residues preceding PR (1-10 of the construct numbering); staphylocoagulase, first 11 residues of the 32-residue pseudorepeat PR (11-21 of the construct numbering); last 21 residues of PR (22-42 of the construct numbering); staphylocoagulase repeat R1, 27 residues; engineered C-terminal Cys for labeling; not shown: His6, N-terminal, cleaved

[5F]PR–R1 [2] = molecular target: T1, [5F]PR–R1; assay: other fluorescence titration; as the intensity titration in Hepes pH 7.4, with saturating GPRP (4.9 mM in the methods, 5 mM in the results); n fixed to 1; details: both partners purified

B1: fibrinogen fragment D (domain or fragment)
chain 1: VSEDLRSRIEVLKRKVIEKVQHIQLLQKNVRAQLVDMKRLEVDIDIKIRSCRGSCSRALAREVDLKDYEDQQKQLEQVIAKDLLPSR
chain 2: DNENVVNEYSSELEKHQLYIDETVNSNIPTNLRVLRSILENLRSKIQKLESDVSAQMEYCRTPCTVSCNIPVVSGKECEEIIRKGGETSEMYLIQPDSSVKPYRVYCDMNTENGGWTVIQNRQDGSVDFGRKWDPYKQGFGNVATNTDGKNYCGLPGEYWLGNDKISQLTRMGPTELLIEMEDWKGDKVKAHYGGFTVQNEANKYQISVNKYRGTAGNALMDGASQLMGENRTMTIHNGMFFSTYDRDNDGWLTSDPRKQCSKEDGGGWWYNRCHAANPNGRYYWGGQYTWDMAKHGTDDGVVWMNWKGSWYSMRKMSMKIRPFFPQQ
chain 3: KMLEEIMKYEASILTHDSSIRYLQEIYNSNNQKIVNLKEKVAQLEAQCQEPCKDTVQIHDITGKDCQDIANKGAKQSGLYFIKPLKANQQFLVYCEIDGSGNGWTVFQKRLDGSVDFKKNWIQYKEGFGHLSPTGTTEFWLGNEKIHLISTQSAIPYALRVELEDWNGRTSTADYAMFKVGPEADKYRLTYAYFAGGDAGDAFDGFDFGDDPSDKFFTSHNGMQFSTWDNDNDKFEGNCAEQDGSGWWMNKCHAGHLNGVYYQGGTYSKASTPNGYDNGIIWATWKTRWYSMKKTTMKIIPFNRLTIGEGQQHHLGGAK
[5F]PR–R1 [1]
  Kd: 49 nM
[5F]PR–R1 [2]
  Kd: 18 nM
